Four molecules from PMC4535689 can be followed below.

In experiment [1] the target is mouse NGL-1 extracellular fragment (LRR and Ig domains) (mouse). Briefly: AUC.
Experiment [2] addresses T1, human NGL-2 extracellular fragment (LRR and Ig domains) (human).
T1 sequence (Q9HBW1 whole entry, looked up): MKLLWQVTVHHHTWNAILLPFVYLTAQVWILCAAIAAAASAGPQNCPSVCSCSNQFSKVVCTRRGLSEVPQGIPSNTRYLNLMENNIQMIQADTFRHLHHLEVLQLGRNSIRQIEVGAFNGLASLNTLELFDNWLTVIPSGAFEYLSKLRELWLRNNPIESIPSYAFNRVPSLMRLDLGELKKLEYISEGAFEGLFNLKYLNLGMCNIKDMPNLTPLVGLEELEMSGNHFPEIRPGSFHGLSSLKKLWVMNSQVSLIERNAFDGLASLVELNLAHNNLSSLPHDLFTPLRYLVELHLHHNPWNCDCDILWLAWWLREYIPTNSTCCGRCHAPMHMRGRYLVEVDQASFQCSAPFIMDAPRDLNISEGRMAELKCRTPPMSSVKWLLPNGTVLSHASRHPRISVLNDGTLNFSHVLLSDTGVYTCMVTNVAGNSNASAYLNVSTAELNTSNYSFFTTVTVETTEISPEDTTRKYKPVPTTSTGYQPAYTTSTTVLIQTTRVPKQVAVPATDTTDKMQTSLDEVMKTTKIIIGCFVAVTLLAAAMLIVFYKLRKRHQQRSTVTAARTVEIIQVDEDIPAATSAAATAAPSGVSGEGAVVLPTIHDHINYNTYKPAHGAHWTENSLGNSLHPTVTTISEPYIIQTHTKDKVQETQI
Briefly: AUC.

“mouse netrin G1 isoform G1f (LN and LE1 domains) (natural protein)”: in experiment [1], the Kd came to 505 nM and the stoichiometry N worked out at 1.
“mouse netrin G1 isoform G1j (LN domain only) (natural protein)”: in experiment [1], the Kd was determined as 1490 nM.

B1: human netrin G2, full ectodomain (LN domain, LE1-3 and C'), lacking only the GPI anchor site (domain or fragment)
chain: DYDICKSWVTTDEGPTWEFYACQPKVMRLKDYVKVKVEPSGITCGDPPERFCSHENPYLCSNECDASNPDLAHPPRLMFDKEEEGLATYWQSITWSRYPSPLEANITLSWNKTVELTDDVVMTFEYGRPTVMVLEKSLDNGRTWQPYQFYAEDCMEAFGMSARRARDMSSSSAHRVLCTEEYSRWAGSKKEKHVRFEVRDRFAIFAGPDLRNMDNLYTRLESAKGLKEFFTLTDLRMRLLRPALGGTYVQRENLYKYFYAISNIEVIGRCKCNLHANLCSMREGSLQCECEHNTTGPDCGKCKKNFRTRSWRAGSYLPLPHGSPNACATAGSFGNCECYGHSNRCSYIDFLNVVTCVSCKHNTRGQHCQHCRLGYYRNGSAELDDENVCIECNCNQIGSVHDRCNETGFCECREGAAGPKCDDCLPTHYWRQGCYPNVCDDDQLLCQNGGTCLQNQRCACPRGYTGVRCEQPRCDPADDDGGLDCDR
Take B1: in experiment [2], the Kd was determined as 264 nM and the stoichiometry N amounted to 1.

B2: human sNetrin G2 ("short" netrin G2, LN and LE1 domains only) (domain or fragment)
chain: DYDICKSWVTTDEGPTWEFYACQPKVMRLKDYVKVKVEPSGITCGDPPERFCSHENPYLCSNECDASNPDLAHPPRLMFDKEEEGLATYWQSITWSRYPSPLEANITLSWNKTVELTDDVVMTFEYGRPTVMVLEKSLDNGRTWQPYQFYAEDCMEAFGMSARRARDMSSSSAHRVLCTEEYSRWAGSKKEKHVRFEVRDRFAIFAGPDLRNMDNLYTRLESAKGLKEFFTLTDLRMRLLRPALGGTYVQRENLYKYFYAISNIEVIGRCKCNLHANLCSMREGSLQCECEHNTTGPDCGKCKKNFRTRSWRAGSYLPLPHGSPNACATAGS
modifications: N-linked glycans at Asn105 and Asn111 (seen in the crystal structure)
B2: the Kd in experiment [2] is 180 nM.
